From patent US20080044423A1 come the findings set out here.

Holding throughout (test): cell-based or functional assay
Test [1] concerns the target human IL-17A, untagged, E. coli derived (in house or Peprotech) (human) (UniProt Q16552).
The target in test [2] is cynomolgus IL-17A (cynomolgus).
Test [3] has as its target human IL-17A derived from the HEK-EBNA expression system (human) (UniProt Q16552).

Sequence of human IL-17A, untagged, E. coli derived (in house or Peprotech) (human) (Q16552 24-155): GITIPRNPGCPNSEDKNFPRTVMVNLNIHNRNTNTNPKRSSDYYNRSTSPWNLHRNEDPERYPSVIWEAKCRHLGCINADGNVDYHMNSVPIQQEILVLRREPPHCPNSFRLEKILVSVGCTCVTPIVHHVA
Sequence of cynomolgus IL-17A (cynomolgus) (Q16552 other isoform, or with tags, fused parts or gaps limits assumed): as the sequence (Q16552 24-155) above, with T3A, P8S, N34S, I77V, N78K, P104R counted along it
Sequence of human IL-17A derived from the HEK-EBNA expression system (human) (Q16552 24-155): as the sequence (Q16552 24-155) above

In the case of “hIgG1 isotype control (human IgG1 CAT002, Cambridge Antibody Technology Limited)”, in test [1], the OA synovial fibroblast IL-8 (IL-17A 1 ng/ml + TNF 0.01 ng/ml), % Inhibition at 50 nM antibody is -1.3%; the OA synovial fibroblast IL-8 (IL-17A 10 ng/ml + TNF 1 ng/ml), % Inhibition at 50 nM antibody is -3.9%; the cartilage explant IL-6 (IL-17A 10 ng/ml + TNF 1 ng/ml), % inhibition at 50 nM antibody was determined as 3.3%; the cartilage explant IL-6 (pg/ml), mean, IL-17A 10 ng/ml + TNF 1 ng/ml + antibody (55.00 pg/ml without antibody) is 53.2 pg/mL.

Consider mAb317 (R & D Systems) (antibody), for which the HT1080 IL-6 release, IgG IC50 in test [2] turned out to be 14.1 nM; in test [3], 3.2 nM.

Turning to “mIgG1 isotype control (mouse IgG1, R & D Systems) (antibody)”, in test [1], the cartilage explant IL-6 (IL-17A 10 ng/ml + TNF 1 ng/ml), % inhibition at 50 nM antibody came out at 13.8% and the cartilage explant IL-6 (pg/ml), mean, IL-17A 10 ng/ml + TNF 1 ng/ml + antibody (55.00 pg/ml without antibody) came to 47.4 pg/mL.
